What was measured:
[1] = target: MLKL in membrane fraction (chemically cross-linked) (UniProt Q9D2Y4); test: cross-linking
[2] = target: ND-HBD*-3×HA (mouse | not stated) (UniProt Q9D2Y4); test: non-reducing SDS-PAGE with immunoblot
[3] = target: ND-HBD*-GFP-Flag (mouse | not stated) (UniProt Q9D2Y4); test: SiMPull
[4] = target: the molecule itself; test: non-reducing SDS-PAGE with immunoblot

“MLKL in membrane fraction (chemically cross-linked) (from UniProt Q9D2Y4 1-472) (natural protein)” was tested, and the stoichiometry N [1] was over 4.

“ND-HBD*-3×HA (from UniProt Q9D2Y4-2 1-190)” gave a stoichiometry N [2] of 4.

Work on “ND-HBD*-GFP-Flag (from UniProt Q9D2Y4-2 1-190)” yielded a stoichiometry N [3] of under 4.

B1: endogenous MLKL of L929 cells (natural protein, mouse (endogenous in L929), UniProt Q9D2Y4-2 1-464, looked up)
chain: MDKLGQIIKLGQLIYEQCEKMKYCRKQCQRLGNRVHGLLQPLQRLQAQGKKNLPDDITAALGRFDEVLKEANQQIEKFSKKSHIWKFVSVGNDKILFHEVNEKLRDVWEELLLLLQVYHWNTVSDVSQPASWQQEDRQDAEEDGNENMKVILMQLQISVEEINKTLKQCSLKPTQEIPQDLQIKEIPKEHLGPPWTKLKTSKMSTIYRGEYHRSPVTIKVFNNPQAESVGIVRFTFNDEIKTMKKFDSPNILRIFGICIDQTVKPPEFSIVMEYCELGTLRELLDREKDLTMSVRSLLVLRAARGLYRLHHSETLHRNISSSSFLVAGGYQVKLAGFELSKTQNSISRTAKSTKAERSSSTIYVSPERLKNPFCLYDIKAEIYSFGIVLWEIATGKIPFEGCDSKKIRELVAEDKKQEPVGQDCPELLREIINECRAHEPSQRPSVDGILERLSAVEESTDKKV
In the case of B1, the “stoichiometry N” value [4] is reported as 4.

— paper PMC3879712 (Cell Research, 2013)
